We go through three molecules from patent US20200181263A1 (NUMAB THERAPEUTICS, published 2020).

Assay [1] addresses T1, human IL-23 receptor ECD (human, UniProt Q5VWK5 24-355).
T1 construct: extracellular domain
T1 sequence (looked up): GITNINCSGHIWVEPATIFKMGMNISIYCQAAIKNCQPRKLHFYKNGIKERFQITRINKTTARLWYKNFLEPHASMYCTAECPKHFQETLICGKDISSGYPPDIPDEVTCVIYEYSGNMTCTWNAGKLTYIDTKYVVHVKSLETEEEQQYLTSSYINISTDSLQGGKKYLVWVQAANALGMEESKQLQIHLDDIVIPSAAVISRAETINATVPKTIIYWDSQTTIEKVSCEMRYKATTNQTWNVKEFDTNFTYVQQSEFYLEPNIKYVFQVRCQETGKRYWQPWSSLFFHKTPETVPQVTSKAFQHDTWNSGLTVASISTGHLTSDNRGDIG
The assay is described as follows: SPR, target immobilised by amine coupling, binder as analyte.

Assay [2] has as its target T2, cyno CD3 (cyno, UniProt Q95LI5 22-117).
T2 sequence (looked up): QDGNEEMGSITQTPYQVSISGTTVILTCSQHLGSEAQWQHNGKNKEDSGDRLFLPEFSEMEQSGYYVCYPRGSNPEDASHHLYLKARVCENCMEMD
Described as above.

Assay [3] has as its target T3, human serum albumin (human, UniProt P02768 25-609).
T3 construct: also called HSA
The description is as above.

For assay [4], the target named is T4, human CD3 gamma-epsilon single-chain (human, UniProt P09693 23-103; P07766 23-118).
T4 construct: Recombinant protein immobilised on the SPR chip
The description is as above.

For assay [5], the target named is human IL23R IL12Rbeta 1 heterodimer on CHO-K1 cells (human, UniProt Q5VWK5 24-629; P42701 24-662). The assay is described as follows: cell-based or functional assay.

B1: PRO738 (other)
chain 1: DIQMTQSPSSLSASVGDRVTITCQASENIYSFLAWYQQKPGKAPKLLIYSASKLAAGVPSRFSGSGSGTDFTLTISSLQPEDFATYYCQQTNRYSNPDIYNVFGTGTKVTVLGGGGGSGGGGSGGGGSGGGGSEVQLVESGGGLVQPGGSLRLSCAASGIDFNSNYYMCWVRQAPGKGLEWIGCIYVGSHVNTYYANWAKGRFTISRDNSKNTVYLQMNSLRAEDTAVYYCATSGSSVLYFKFWGQGTLVTVSSGGGGSGGGGSDIQMTQSPSSLSASVGDRVTITCQSSQSVFSNNYLAWFQQKPGQSPKRLIYSASTLASGVPSRFSGSGSGTDFTLTISSLQPEDFATYYCLGSYACSSADCYVFGCGTKVTVLGGGGGSGGGGSGGGGSDIQMTQSPSSLSASVGDRVTITCQSSESVYSNNQLSWYQQKPGQPPKLLIYDASDLASGVPSRFSGSGSGTDFTLTISSLQPEDFATYYCAGGFSSSSDTAFGGGTKLTVLG
chain 2: DIQMTQSPSSLSASVGDRVTITCQASENIYSFLAWYQQKPGKAPKLLIYSASKLAAGVPSRFSGSGSGTDFTLTISSLQPEDFATYYCQQTNRYSNPDIYNVFGTGTKVTVLGGGGGSGGGGSGGGGSGGGGSEVQLVESGGGLVQPGGSLRLSCAASGIDFNSNYYMCWVRQAPGKGLEWIGCIYVGSHVNTYYANWAKGRFTISRDNSKNTVYLQMNSLRAEDTAVYYCATSGSSVLYFKFWGQGTLVTVSSGGGGSGGGGSEVQLVESGGGLVQPGGSLRLSCAASGFSLSSNAMGWVRQAPGKGLEYIGIISVGGFTYYASWAKGRFTISRDNSKNTVYLQMNSLRAEDTATYFCARDRHGGDSSGAFYLWGQGTLVTVSSGGGGSGGGGSGGGGSEVQLVESGGGLVQPGGSLRLSCAASGFSLSSYDMSWVRQAPGKCLAWIGASYASGPTYYASWAKGRFTISRDNSKNTVYLQMNSLRAEDTATYFCARGGWTGTSHSNIWGQGTLVTVSS
notes: Hetero-dimeric MATCH, anti-parallel; diS in anti-CD3 domain, 15 aa GS-linker
As for B1, the Kd in assay [1] came to 0.0337 nM; in assay [2] it was 8.48 nM; in assay [3] it was 0.303 nM; in assay [4], 10.1 nM. For the same molecule, the “NFAT assay EC50 (T-cell activation, 5 h)” value in assay [5] worked out at 0.423 nM.

B2: PRO733 (other)
chain 1: DIQMTQSPSSLSASVGDRVTITCQASENIYSFLAWYQQKPGKAPKLLIYSASKLAAGVPSRFSGSGSGTDFTLTISSLQPEDFATYYCQQTNRYSNPDIYNVFGTGTKVTVLGGGGGSGGGGSGGGGSGGGGSEVQLVESGGGLVQPGGSLRLSCAASGIDFNSNYYMCWVRQAPGKGLEWIGCIYVGSHVNTYYANWAKGRFTISRDNSKNTVYLQMNSLRAEDTAVYYCATSGSSVLYFKFWGQGTLVTVSSGGGGSGGGGSDIQMTQSPSSLSASVGDRVTITCQSSESVYNNKRLSWYQQKPGKAPKLLIYTASSLASGVPSRFSGSGSGTDFTLTISSLQPEDFATYYCQGEFTCSNADCFTFGCGTKVTVLGSGGGGSGGGGSDIQMTQSPSSLSASVGDRVTITCQSSESVYSNNQLSWYQQKPGQPPKLLIYDASDLASGVPSRFSGSGSGTDFTLTISSLQPEDFATYYCAGGFSSSSDTAFGGGTKLTVLG
chain 2: DIQMTQSPSSLSASVGDRVTITCQASENIYSFLAWYQQKPGKAPKLLIYSASKLAAGVPSRFSGSGSGTDFTLTISSLQPEDFATYYCQQTNRYSNPDIYNVFGTGTKVTVLGGGGGSGGGGSGGGGSGGGGSEVQLVESGGGLVQPGGSLRLSCAASGIDFNSNYYMCWVRQAPGKGLEWIGCIYVGSHVNTYYANWAKGRFTISRDNSKNTVYLQMNSLRAEDTAVYYCATSGSSVLYFKFWGQGTLVTVSSGGGGSGGGGSEVQLVESGGGLVQPGGSLRLSCAASGFPLSSYAMIWVRQAPGKCLEWIGMILRAGNIYYASWVKGRFTISRDNSKNTVYLQMNSLRAEDTAVYYCARRHYNREGYPIGIGDLWGQGTLVTVSSSGGGGSGGGGSEVQLVESGGGLVQPGGSLRLSCAASGFSLSSNAMGWVRQAPGKGLEYIGIISVGGFTYYASWAKGRFTISRDNSKNTVYLQMNSLRAEDTATYFCARDRHGGDSSGAFYLWGQGTLVTVSS
notes: Hetero-dimeric MATCH, parallel; diS in anti-CD3 domain, 11 aa GS-linker, alternative anti-CD3
B2: the dissociation constant Kd in assay [1] was determined as 0.0366 nM; in assay [2], 47.7 nM; in assay [3], 0.495 nM; in assay [4] it was 26.5 nM. Also, the “NFAT assay EC50 (T-cell activation, 5 h)” value in assay [5] stood at 0.152 nM.

B3: PRO734 (other)
chain 1: DIQMTQSPSSLSASVGDRVTITCQASENIYSFLAWYQQKPGKAPKLLIYSASKLAAGVPSRFSGSGSGTDFTLTISSLQPEDFATYYCQQTNRYSNPDIYNVFGTGTKVTVLGGGGGSGGGGSGGGGSGGGGSEVQLVESGGGLVQPGGSLRLSCAASGIDFNSNYYMCWVRQAPGKGLEWIGCIYVGSHVNTYYANWAKGRFTISRDNSKNTVYLQMNSLRAEDTAVYYCATSGSSVLYFKFWGQGTLVTVSSGGGGSGGGGSDIQMTQSPSSLSASVGDRVTITCQSSQSVFSNNYLAWFQQKPGQSPKRLIYSASTLASGVPSRFSGSGSGTDFTLTISSLQPEDFATYYCLGSYACSSADCYVFGCGTKVTVLGSGGGGSGGGGSDIQMTQSPSSLSASVGDRVTITCQSSESVYSNNQLSWYQQKPGQPPKLLIYDASDLASGVPSRFSGSGSGTDFTLTISSLQPEDFATYYCAGGFSSSSDTAFGGGTKLTVLG
chain 2: DIQMTQSPSSLSASVGDRVTITCQASENIYSFLAWYQQKPGKAPKLLIYSASKLAAGVPSRFSGSGSGTDFTLTISSLQPEDFATYYCQQTNRYSNPDIYNVFGTGTKVTVLGGGGGSGGGGSGGGGSGGGGSEVQLVESGGGLVQPGGSLRLSCAASGIDFNSNYYMCWVRQAPGKGLEWIGCIYVGSHVNTYYANWAKGRFTISRDNSKNTVYLQMNSLRAEDTAVYYCATSGSSVLYFKFWGQGTLVTVSSGGGGSGGGGSEVQLVESGGGLVQPGGSLRLSCAASGFSLSSNAMGWVRQAPGKGLEYIGIISVGGFTYYASWAKGRFTISRDNSKNTVYLQMNSLRAEDTATYFCARDRHGGDSSGAFYLWGQGTLVTVSSSGGGGSGGGGSEVQLVESGGGLVQPGGSLRLSCAASGFSLSSYDMSWVRQAPGKCLAWIGASYASGPTYYASWAKGRFTISRDNSKNTVYLQMNSLRAEDTATYFCARGGWTGTSHSNIWGQGTLVTVSS
notes: Hetero-dimeric MATCH, anti-parallel; diS in anti-CD3 domain, 11 aa GS-linker
On to B3, for which the Kd in assay [1] was 0.036 nM; in assay [2], 10.2 nM; in assay [3] it was 0.482 nM; in assay [4], 11.9 nM. In addition, in assay [5], the “NFAT assay EC50 (T-cell activation, 5 h)” value was 46.8 nM.
